Experimental data taken from article doi:10.1101/2023.10.15.562437, “The guide RNA sequence dictates the slicing kinetics and conformational dynamics of the Argonaute silencing complex”.

B1: miR-124 guide + 16-bp target (dsRNA)
RNA 1: UAAGGCACGCGGUGAAUGCCAA
RNA 2: GGGAACAACAACAACAACAACAACAACAACAAAAUUUUUUCACCGCGUGCCUUAAACAACAACAACAACA
modifications: guide 5' phosphate
B2: miR-196a guide + perfect target (dsRNA)
RNA 1: UAGGUAGUUUCAUGUUGUUGGG
RNA 2: GGGAACAACAACAACAACAACAACAACAACAACCCAACAACAUGAAACUACCUAAACAACAACAACAACA
modifications: guide 5' phosphate

Legend:
AGO2 D669A [1] = molecular target: T1, AGO2 D669A (UniProt Q9UKV8 1-859, D669A); assay: hydroxyl-radical footprinting; elevated reactivity at 9-11; Footprinting: 18 mM HEPES pH 7.4, 100 mM KOAc, 1.2 mM Mg(OAc)2, 0.015 mg/mL BSA, 0.0015 mg/mL yeast tRNA, 0.01% IGEPAL, 8.75 mM DTT, 37 C; filter binding (titra); conditions: protein: recombinant; tags: N-terminal 3xFLAG; label: 32P 5' end of guide; complementary up to guide position 16
T1 sequence (Q9UKV8 whole entry D669A): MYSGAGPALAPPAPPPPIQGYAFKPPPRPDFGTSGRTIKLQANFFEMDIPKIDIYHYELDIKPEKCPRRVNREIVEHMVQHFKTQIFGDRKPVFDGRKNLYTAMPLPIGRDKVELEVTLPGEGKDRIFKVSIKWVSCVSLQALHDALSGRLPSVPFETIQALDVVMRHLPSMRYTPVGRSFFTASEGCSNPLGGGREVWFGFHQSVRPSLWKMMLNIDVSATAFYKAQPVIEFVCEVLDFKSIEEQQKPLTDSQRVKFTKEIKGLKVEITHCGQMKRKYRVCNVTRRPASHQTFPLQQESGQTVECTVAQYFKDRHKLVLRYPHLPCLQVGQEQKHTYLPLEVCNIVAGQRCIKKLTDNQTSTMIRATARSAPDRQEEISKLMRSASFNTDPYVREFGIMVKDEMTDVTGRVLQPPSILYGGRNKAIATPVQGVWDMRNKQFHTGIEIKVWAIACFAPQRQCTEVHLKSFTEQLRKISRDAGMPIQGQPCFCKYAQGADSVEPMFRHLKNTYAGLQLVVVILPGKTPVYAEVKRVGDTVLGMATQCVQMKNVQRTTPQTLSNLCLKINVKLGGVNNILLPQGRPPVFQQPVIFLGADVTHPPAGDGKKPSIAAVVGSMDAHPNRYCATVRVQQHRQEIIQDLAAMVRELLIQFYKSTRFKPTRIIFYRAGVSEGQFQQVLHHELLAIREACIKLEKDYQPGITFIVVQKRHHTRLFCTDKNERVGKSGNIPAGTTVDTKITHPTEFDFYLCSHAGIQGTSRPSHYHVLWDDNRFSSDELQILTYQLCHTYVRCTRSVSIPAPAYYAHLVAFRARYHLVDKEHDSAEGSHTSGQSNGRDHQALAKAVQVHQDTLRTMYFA

AGO2 D669A [2] = molecular target: T1, AGO2 D669A; assay: hydroxyl-radical footprinting; peaks at 9-11; same at 1, 4 and 15 min; Footprinting: 18 mM HEPES pH 7.4, 100 mM KOAc, 1.2 mM Mg(OAc)2, 0.015 mg/mL BSA, 0.0015 mg/mL yeast tRNA, 0.01% IGEPAL, 8.75 mM DTT, 37 C; filter binding (titra); conditions: protein: recombinant; tags: N-terminal 3xFLAG; label: 32P 5' end of guide; guide paired to internal site of longer target

| Binder | binding result (AGO2 D669A [1]) | binding result (AGO2 D669A [2]) |
| --- | --- | --- |
| B1 | binds | – |
| B2 | – | binds |
